In PMC3059340 (Analytical chemistry, 2011):

Molecular target: T1, Recombinant human E-selectin/Fc chimera (human, UniProt P16581 22-556)
T1 sequence (looked up): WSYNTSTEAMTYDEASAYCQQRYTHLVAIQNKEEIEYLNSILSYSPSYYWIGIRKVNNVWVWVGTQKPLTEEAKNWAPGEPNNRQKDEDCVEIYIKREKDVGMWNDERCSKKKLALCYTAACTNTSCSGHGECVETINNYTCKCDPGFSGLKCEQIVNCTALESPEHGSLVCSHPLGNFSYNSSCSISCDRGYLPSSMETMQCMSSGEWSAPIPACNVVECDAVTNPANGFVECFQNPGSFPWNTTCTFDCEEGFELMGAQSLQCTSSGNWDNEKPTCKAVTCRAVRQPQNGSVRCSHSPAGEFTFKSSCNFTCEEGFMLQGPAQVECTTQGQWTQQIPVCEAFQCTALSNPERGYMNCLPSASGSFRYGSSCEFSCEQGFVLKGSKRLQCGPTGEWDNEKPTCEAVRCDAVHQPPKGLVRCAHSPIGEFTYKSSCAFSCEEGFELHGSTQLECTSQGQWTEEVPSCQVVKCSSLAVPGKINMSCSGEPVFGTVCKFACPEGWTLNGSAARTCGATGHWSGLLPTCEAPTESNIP
Experiment: SPR

B1: Recombinant human CD24 (natural protein, UniProt P25063 27-59, looked up)
chain: SETTTGTSSNSSQSTSNSGLAPNPTNATTKAAG
Ka: 3.18e+08 M⁻¹ | Kd: 3.4 nM | koff: 0.0016 s⁻¹ | kon: 379000 M⁻¹ s⁻¹
